# In patent US20240076343A1:
# Assays:
# [1] = target: recombinant His-tagged cynomolgus PD-1 (Acro Biosystems) (cynomolgus) (UniProt B0LAJ3); test: SPR Carterra LSA
# [2] = target: recombinant His-tagged human PD-1 (Acro Biosystems) (human) (UniProt Q15116); test: SPR Carterra LSA
# recombinant His-tagged human PD-1 (Acro Biosystems) (human), sequence (Q15116 25-167 limits assumed): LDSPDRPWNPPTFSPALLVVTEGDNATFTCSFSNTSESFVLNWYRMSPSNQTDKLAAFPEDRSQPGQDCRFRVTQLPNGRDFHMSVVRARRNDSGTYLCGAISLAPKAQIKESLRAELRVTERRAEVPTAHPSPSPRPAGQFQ
# recombinant His-tagged cynomolgus PD-1 (Acro Biosystems) (cynomolgus), sequence (B0LAJ3 entry or part of it limits assumed): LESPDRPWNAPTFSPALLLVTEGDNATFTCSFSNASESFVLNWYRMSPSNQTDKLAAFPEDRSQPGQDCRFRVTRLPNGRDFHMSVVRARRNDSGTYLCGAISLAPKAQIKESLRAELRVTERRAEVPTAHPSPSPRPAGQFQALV
Substance,Kd [1],koff [1],kon [1],Kd [2],koff [2],kon [2]
Anti-PD-1 clone MIH4 mIgG1 (antibody),891 nM,0.12 s⁻¹,130000 M⁻¹ s⁻¹,10 nM,0.0014 s⁻¹,130000 M⁻¹ s⁻¹
Anti-hPD-1 clone J105-mIgG1 (antibody),1300 nM,0.066 s⁻¹,50000 M⁻¹ s⁻¹,86 nM,0.0053 s⁻¹,62000 M⁻¹ s⁻¹

# Stronger by Kd [1], values ahead:
Kd [1],koff [1],kon [1],Kd [2],koff [2],kon [2],Substance
6.4 nM,,,,,,OPDIVO ® (nivolumab) (antibody)
0.575 nM,,,,,,KEYTRUDA ® (pembrolizumab) (antibody)
85 nM,0.0073 s⁻¹,86000 M⁻¹ s⁻¹,19 nM,0.0022 s⁻¹,110000 M⁻¹ s⁻¹,Anti-hPD-1 clone EH12.2H7-mIgG1 (antibody)
